Measured values published in the supplement of paper PMC9112550, “Optimization of the antimicrobial peptide Bac7 by deep mutational scanning” (BMC Biology, 2022).

Test system: Escherichia coli TOP10
Test: shrunken log2 fold change of peptide-encoding DNA abundance (4.5 h post-induction vs induction); higher = less antimicrobial activity (less host growth inhibition)
Conditions: time post-induction: 4.5 h; library: site-saturation at positions 5, 18, 19, 20
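Also: peptides expressed intracellularly from a pBAD plasmid library in pooled LB shake-flask culture, induced with 0.3% L-arabinose, DNA abundance read by NGS, three biological replicates, DESeq2 with apeglm shrinkage.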

| Sequence | shrunken log2 fold change |
| --- | --- |
| RRIRFRPPRLPRPRPRPLQYPRP | -0.242 |
| RRIRFRPPRLPRPRPRPLSSPRP | -0.307 |
| RRIRFRPPRLPRPRPRPLSVPRP | -0.271 |
| RRIRFRPPRLPRPRPRPLVNPRP | -0.0651 |
| RRIRFRPPRLPRPRPRPLVRPRP | -0.102 |
| RRIRFRPPRLPRPRPRPLWFPRP | 0.00985 |
| RRIRFRPPRLPRPRPRPMCPPRP | -0.176 |
| RRIRFRPPRLPRPRPRPMDKPRP | -0.301 |
| RRIRFRPPRLPRPRPRPMDSPRP | -0.398 |
| RRIRFRPPRLPRPRPRPMEFPRP | -0.194 |
| RRIRFRPPRLPRPRPRPMFEPRP | -0.0233 |
| RRIRFRPPRLPRPRPRPMFFPRP | -0.549 |
| RRIRFRPPRLPRPRPRPMGFPRP | -0.0249 |
| RRIRFRPPRLPRPRPRPMHIPRP | -0.419 |
| RRIRFRPPRLPRPRPRPMLKPRP | -0.527 |
| RRIRFRPPRLPRPRPRPMLMPRP | -0.0715 |
| RRIRFRPPRLPRPRPRPMMNPRP | -0.77 |
| RRIRFRPPRLPRPRPRPMNTPRP | 0.0693 |
| RRIRFRPPRLPRPRPRPMQTPRP | -0.101 |
| RRIRFRPPRLPRPRPRPMRIPRP | 0.068 |
| RRIRFRPPRLPRPRPRPMRMPRP | -0.0248 |
| RRIRFRPPRLPRPRPRPMSHPRP | 0.00661 |
| RRIRFRPPRLPRPRPRPMSMPRP | 0.00945 |
| RRIRFRPPRLPRPRPRPMTHPRP | -0.401 |
| RRIRFRPPRLPRPRPRPMTMPRP | -0.132 |

| Sequence | shrunken log2 fold change |
| --- | --- |
| RRIRFRPPRLPRPRPRPMTSPRP | -0.552 |
| RRIRFRPPRLPRPRPRPNANPRP | -0.0822 |
| RRIRFRPPRLPRPRPRPNCRPRP | 0.0638 |
| RRIRFRPPRLPRPRPRPNDNPRP | -0.616 |
| RRIRFRPPRLPRPRPRPNDTPRP | -0.179 |
| RRIRFRPPRLPRPRPRPNFEPRP | -0.0264 |
| RRIRFRPPRLPRPRPRPNGFPRP | 0.000958 |
| RRIRFRPPRLPRPRPRPNHIPRP | -0.937 |
| RRIRFRPPRLPRPRPRPNHVPRP | -0.276 |
| RRIRFRPPRLPRPRPRPNIGPRP | -0.0107 |
| RRIRFRPPRLPRPRPRPNKTPRP | -0.172 |
| RRIRFRPPRLPRPRPRPNKVPRP | -0.92 |
| RRIRFRPPRLPRPRPRPNPAPRP | 0.0261 |
| RRIRFRPPRLPRPRPRPNPNPRP | -0.168 |
| RRIRFRPPRLPRPRPRPNSHPRP | -0.432 |
| RRIRFRPPRLPRPRPRPNTDPRP | -0.384 |
| RRIRFRPPRLPRPRPRPNTSPRP | -0.307 |
| RRIRFRPPRLPRPRPRPNWHPRP | -0.0729 |
| RRIRFRPPRLPRPRPRPNWLPRP | -0.0999 |
| RRIRFRPPRLPRPRPRPNYMPRP | -0.254 |
| RRIRFRPPRLPRPRPRPNYRPRP | 0.055 |
| RRIRFRPPRLPRPRPRPNYWPRP | -0.221 |
| RRIRFRPPRLPRPRPRPPAKPRP | 0.633 |
| RRIRFRPPRLPRPRPRPPCGPRP | 0.362 |
| RRIRFRPPRLPRPRPRPPDKPRP | 0.151 |

| Sequence | shrunken log2 fold change |
| --- | --- |
| RRIRFRPPRLPRPRPRPPEVPRP | 0.795 |
| RRIRFRPPRLPRPRPRPPEWPRP | 0.139 |
| RRIRFRPPRLPRPRPRPPHMPRP | -0.137 |
| RRIRFRPPRLPRPRPRPPHQPRP | 0.301 |
| RRIRFRPPRLPRPRPRPPIIPRP | 0.92 |
| RRIRFRPPRLPRPRPRPPIVPRP | -0.126 |
| RRIRFRPPRLPRPRPRPPKMPRP | 0.436 |
| RRIRFRPPRLPRPRPRPPKTPRP | 0.0214 |
| RRIRFRPPRLPRPRPRPPLRPRP | 0.373 |
| RRIRFRPPRLPRPRPRPPMGPRP | -0.00833 |
| RRIRFRPPRLPRPRPRPPNYPRP | -0.023 |
| RRIRFRPPRLPRPRPRPPPCPRP | 0.898 |
| RRIRFRPPRLPRPRPRPPPFPRP | 0.608 |
| RRIRFRPPRLPRPRPRPPPLPRP | 1.38 |
| RRIRFRPPRLPRPRPRPPQCPRP | 0.237 |
| RRIRFRPPRLPRPRPRPPQRPRP | 0.617 |
| RRIRFRPPRLPRPRPRPPRNPRP | 0.263 |
| RRIRFRPPRLPRPRPRPPSLPRP | -0.112 |
| RRIRFRPPRLPRPRPRPPSYPRP | -0.0274 |
| RRIRFRPPRLPRPRPRPPTFPRP | -0.0402 |
| RRIRFRPPRLPRPRPRPPTLPRP | -0.0735 |
| RRIRFRPPRLPRPRPRPPVCPRP | -0.0141 |
| RRIRFRPPRLPRPRPRPPVPPRP | 0.859 |
| RRIRFRPPRLPRPRPRPPWCPRP | 0.0236 |
| RRIRFRPPRLPRPRPRPPYCPRP | -0.448 |

| Sequence | shrunken log2 fold change |
| --- | --- |
| RRIRFRPPRLPRPRPRPQAYPRP | -0.0572 |
| RRIRFRPPRLPRPRPRPQCAPRP | 0.057 |
| RRIRFRPPRLPRPRPRPQDKPRP | -0.308 |
| RRIRFRPPRLPRPRPRPQELPRP | -0.0341 |
| RRIRFRPPRLPRPRPRPQGCPRP | -0.13 |
| RRIRFRPPRLPRPRPRPQGFPRP | -0.313 |
| RRIRFRPPRLPRPRPRPQGYPRP | -0.249 |
| RRIRFRPPRLPRPRPRPQHEPRP | -0.25 |
| RRIRFRPPRLPRPRPRPQHLPRP | -1.22 |
| RRIRFRPPRLPRPRPRPQHYPRP | -1.01 |
| RRIRFRPPRLPRPRPRPQIAPRP | 0.111 |
| RRIRFRPPRLPRPRPRPQIFPRP | -0.172 |
| RRIRFRPPRLPRPRPRPQKMPRP | -0.221 |
| RRIRFRPPRLPRPRPRPQKNPRP | 0.16 |
| RRIRFRPPRLPRPRPRPQKTPRP | 0.00435 |
| RRIRFRPPRLPRPRPRPQKWPRP | -0.0281 |
| RRIRFRPPRLPRPRPRPQLNPRP | -0.53 |
| RRIRFRPPRLPRPRPRPQMRPRP | 0.495 |
| RRIRFRPPRLPRPRPRPQPHPRP | 0.166 |
| RRIRFRPPRLPRPRPRPQPKPRP | 0.666 |
| RRIRFRPPRLPRPRPRPQQCPRP | -0.181 |
| RRIRFRPPRLPRPRPRPQQYPRP | -0.552 |
| RRIRFRPPRLPRPRPRPQRFPRP | 0.0542 |
| RRIRFRPPRLPRPRPRPQTTPRP | 0.00489 |
| RRIRFRPPRLPRPRPRPQVDPRP | -0.412 |

| Sequence | shrunken log2 fold change |
| --- | --- |
| RRIRFRPPRLPRPRPRPQWMPRP | -0.414 |
| RRIRFRPPRLPRPRPRPQWPPRP | 0.192 |
| RRIRFRPPRLPRPRPRPQWQPRP | -0.08 |
| RRIRFRPPRLPRPRPRPQYYPRP | -0.846 |
| RRIRFRPPRLPRPRPRPRAGPRP | 0.614 |
| RRIRFRPPRLPRPRPRPRCHPRP | -0.0965 |
| RRIRFRPPRLPRPRPRPRDCPRP | 2.96 |
| RRIRFRPPRLPRPRPRPRELPRP | 0.263 |
| RRIRFRPPRLPRPRPRPRGTPRP | 0.294 |
| RRIRFRPPRLPRPRPRPRHHPRP | -0.116 |
| RRIRFRPPRLPRPRPRPRIKPRP | -0.168 |
| RRIRFRPPRLPRPRPRPRKHPRP | 0.0878 |
| RRIRFRPPRLPRPRPRPRKPPRP | 0.428 |
| RRIRFRPPRLPRPRPRPRLCPRP | 0.276 |
| RRIRFRPPRLPRPRPRPRLVPRP | 0.207 |
| RRIRFRPPRLPRPRPRPRNQPRP | -0.114 |
| RRIRFRPPRLPRPRPRPRPCPRP | 0.386 |
| RRIRFRPPRLPRPRPRPRPEPRP | 0.477 |
| RRIRFRPPRLPRPRPRPRPHPRP | 0.355 |
| RRIRFRPPRLPRPRPRPRPPPRP | 1.36 |
| RRIRFRPPRLPRPRPRPRPYPRP | -0.175 |
| RRIRFRPPRLPRPRPRPRQDPRP | 0.253 |
| RRIRFRPPRLPRPRPRPRQRPRP | 0.346 |
| RRIRFRPPRLPRPRPRPRQTPRP | -0.0912 |
| RRIRFRPPRLPRPRPRPRREPRP | 0.177 |

| Sequence | shrunken log2 fold change |
| --- | --- |
| RRIRFRPPRLPRPRPRPRRHPRP | 0.822 |
| RRIRFRPPRLPRPRPRPRRRPRP | 0.658 |
| RRIRFRPPRLPRPRPRPRSVPRP | -0.00149 |
| RRIRFRPPRLPRPRPRPRVIPRP | -0.0914 |
| RRIRFRPPRLPRPRPRPRVRPRP | 0.0771 |
| RRIRFRPPRLPRPRPRPRYAPRP | 0.148 |
| RRIRFRPPRLPRPRPRPRYTPRP | -0.15 |
| RRIRFRPPRLPRPRPRPSECPRP | -0.472 |
| RRIRFRPPRLPRPRPRPSEWPRP | -0.028 |
| RRIRFRPPRLPRPRPRPSFVPRP | -0.828 |
| RRIRFRPPRLPRPRPRPSGWPRP | 0.187 |
| RRIRFRPPRLPRPRPRPSIDPRP | -0.433 |
| RRIRFRPPRLPRPRPRPSIVPRP | -0.663 |
| RRIRFRPPRLPRPRPRPSIYPRP | -0.615 |
| RRIRFRPPRLPRPRPRPSKRPRP | -0.565 |
| RRIRFRPPRLPRPRPRPSLWPRP | 0.29 |
| RRIRFRPPRLPRPRPRPSMHPRP | -0.291 |
| RRIRFRPPRLPRPRPRPSMWPRP | -0.579 |
| RRIRFRPPRLPRPRPRPSNFPRP | -0.129 |
| RRIRFRPPRLPRPRPRPSNVPRP | -0.989 |
| RRIRFRPPRLPRPRPRPSPRPRP | 0.426 |
| RRIRFRPPRLPRPRPRPSPVPRP | -0.00168 |
| RRIRFRPPRLPRPRPRPSQDPRP | 0.0128 |
| RRIRFRPPRLPRPRPRPSQTPRP | -0.304 |
| RRIRFRPPRLPRPRPRPSQYPRP | -0.292 |
